B1: IRS1-WT (dsDNA)
DNA 1: AGTGTGTTGGTATTTTTCCCTCAGTTC
DNA 2: GAACTGAGGGAAAAATACCAACACACT
B2: IRS2-WT (dsDNA)
DNA 1: ACATACAGGCTATTTTGTTGATTAAAC
DNA 2: GTTTAATCAACAAAATAGCCTGTATGT
B3: IRS3-WT (dsDNA)
DNA 1: GCCACTTGCTTGTTTTGGAAGGAAAAT
DNA 2: ATTTTCCTTCCAAAACAAGCAAGTGGC

What follows are binders tested against PARIS (ZNF746) (Homo sapiens, UniProt Q6NUN9 SEQ:1-644) (assay: EMSA; competed by unlabeled WT oligo). Conditions: tags: GST; label: 32P.
Chain of PARIS (ZNF746) (Q6NUN9 whole entry): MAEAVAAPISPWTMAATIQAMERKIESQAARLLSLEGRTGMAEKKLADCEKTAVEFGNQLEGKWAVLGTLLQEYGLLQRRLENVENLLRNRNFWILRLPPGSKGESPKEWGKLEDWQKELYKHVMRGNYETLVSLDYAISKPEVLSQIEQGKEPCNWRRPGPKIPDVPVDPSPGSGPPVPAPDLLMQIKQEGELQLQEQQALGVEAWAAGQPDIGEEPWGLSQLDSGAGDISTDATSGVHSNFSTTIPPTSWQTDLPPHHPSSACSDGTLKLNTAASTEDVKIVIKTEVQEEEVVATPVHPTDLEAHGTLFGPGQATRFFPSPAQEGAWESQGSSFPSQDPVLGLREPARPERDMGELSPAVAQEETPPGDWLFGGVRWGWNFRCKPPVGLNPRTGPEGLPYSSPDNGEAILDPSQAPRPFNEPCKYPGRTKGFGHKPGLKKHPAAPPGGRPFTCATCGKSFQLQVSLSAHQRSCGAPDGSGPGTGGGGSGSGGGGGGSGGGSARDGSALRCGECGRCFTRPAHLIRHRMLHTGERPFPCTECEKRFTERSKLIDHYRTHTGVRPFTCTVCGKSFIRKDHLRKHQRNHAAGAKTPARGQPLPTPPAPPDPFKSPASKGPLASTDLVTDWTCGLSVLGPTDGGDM

Binding result, binds:
B1
B2
B3

Reference: patent publication US20120122958, “TRANSCRIPTIONAL REPRESSION LEADING TO PARKINSON'S DISEASE” (published 2012)
